Laboratory results published in publication PMC6593147, “COP1 regulates the stability of CAM7 to promote photomorphogenic growth” (Plant Direct, 2019).

B1: COP1‐His (natural protein)
chain: MEEISTDPVVPAVKPDPRTSSVGEGANRHENDDGGSGGSEIGAPDLDKDLLCPICMQIIKDAFLTACGHSFCYMCIITHLRNKSDCPCCSQHLTNNQLYPNFLLDKLLKKTSARHVSKTASPLDQFREALQRGCDVSIKEVDNLLTLLAERKRKMEQEEAERNMQILLDFLHCLRKQKVDELNEVQTDLQYIKEDINAVERHRIDLYRARDRYSVKLRMLGDDPSTRNAWPHEKNQIGFNSNSLSIRGGNFVGNYQNKKVEGKAQGSSHGLPKKDALSGSDSQSLNQSTVSMARKKRIHAQFNDLQECYLQKRRQLADQPNSKQENDKSVVRREGYSNGLADFQSVLTTFTRYSRLRVIAEIRHGDIFHSANIVSSIEFDRDDELFATAGVSRCIKVFDFSSVVNEPADMQCPIVEMSTRSKLSCLSWNKHEKNHIASSDYEGIVTVWDVTTRQSLMEYEEHEKRAWSVDFSRTEPSMLVSGSDDCKVKVWCTRQEASVINIDMKANICCVKYNPGSSNYIAVGSADHHIHYYDLRNISQPLHVFSGHKKAVSYVKFLSNNELASASTDSTLRLWDVKDNLPVRTFRGHTNEKNFVGLTVNSEYLACGSETNEVYVYHKEITRPVTSHRFGSPDMDDAEEEAGSYFISAVCWKSDSPTMLTANSQGTIKVLVLAA
notes: COP1 (CONSTITUTIVELY PHOTOMORPHOGENIC 1) E3 ubiquitin ligase, Arabidopsis thaliana, full-length CDS cloned into pET-20b(+); also called COP1‐6His; source: E. coli BL21 (DE3), purified by Ni‐NTA Agarose beads; not shown: His6, C-terminal, kept
B2: GST‐HY5 (natural protein, Arabidopsis thaliana, UniProt O24646 1-168, looked up)
chain: MQEQATSSLAASSLPSSSERSSSSAPHLEIKEGIESDEEIRRVPEFGGEAVGKETSGRESGSATGQERTQATVGESQRKRGRTPAEKENKRLKRLLRNRVSAQQARERKKAYLSELENRVKDLENKNSELEERLSTLQNENQMLRHILKNTTGNKRGGGGGSNADASL
notes: Positive control of the pull-down; also called ELONGATED HYPOCOTYL5; source: E. coli BL21 (DE3), purified by Glutathione sepharose 4B beads

Assays:
GST‐CAM7 = biological target: T1, GST‐CAM7 (Arabidopsis thaliana, UniProt P59220 1-149); experiment: pull-down; 2 μg COP1‐His bound to Ni‐NTA beads; GST fusions or GST added in an equimolar ratio, overnight at 4°C; 50 mM Tris‐Cl pH 7.5, 100 mM NaCl, 0.2% glycerol, 0.1% triton, 1 mM EDTA, 0.1% NP‐40; anti‐GST immunoblot; conditions: both partners purified
T1 construct: Vector pGEX-4T2; also called Calmodulin7; CAM7/ZBF3; source: E. coli BL21 (DE3), purified by Glutathione sepharose 4B beads

COP1‐His = biological target: B1; experiment: as above; conditions: both partners purified

binding result (GST‐CAM7) | binding result (COP1‐His) | Binder
binds |  | B1
 | binds | B2
